# Laboratory results from patent publication US20240270821A1, “GIP/GLP1/GCG TRI-RECEPTOR AGONISTS AND USES THEREOF” (priority 2023, published 2024).
# Numbering of substitutions follows the chain as printed. Non-standard residues stand in square brackets, D forms with d. No end group written: not given here. αMeL = CC(C)C[C@](C)(N)C(=O)O; Aib = CC(C)(N)C(=O)O
# B1: Example 29 (peptide)
# chain: YXQGTFTSDFSXXLDKKAQXAFIEYLLAGGPSSGEPPPSEG
# modifications: Aib, Orn, alpha-methyl-Leu, acylated Lys, C-terminal amide; synthetic construct; SITE 2: note = 2-Aminoisobutyric Acid; SITE 12: note = L-ornithine; SITE 13: note = alpha-methyl-leucine; SITE 17: note = Lysine is chemically modified through conjugation of the epsilon-amino group of the Lysine side chain with (2-[2-(2-Amino-ethoxy)-ethoxy]-acetyl)-(gamma-Glu)
# B2: Example 31 (peptide)
# chain: B1 chain with X12K, S39G
# modifications: Lys acylated; non-natural residues; C-amide; synthetic construct; SITE 2: note = 2-Aminoisobutyric Acid; SITE 13: note = alpha-methyl-leucine; SITE 17: note = Lysine is chemically modified through conjugation of the epsilon-amino group of the Lysine side chain with (2-[2-(2-Amino-ethoxy)-ethoxy]-acetyl)-(gamma-Glu)-CO-(CH2) 18-CO2H; SITE 20: n
# B3: Example 37 (peptide)
# chain: B1 chain with X12K, Y25W, A28E, E35A
# modifications: Aib, αMeL; K acylated; C-terminal amide; synthetic construct; SITE 2: note = 2-Aminoisobutyric Acid; SITE 13: note = alpha-methyl-leucine; SITE 17: note = Lysine is chemically modified through conjugation of the epsilon-amino group of the Lysine side chain with (2-[2-(2-Amino-ethoxy)-ethoxy]-acetyl)-(gamma-Glu)-CO-(CH2) 18-CO2H; SITE 20: n
# B4: Example 32 (peptide)
# chain: YXQGTFTSDFSKXLDKKAQXAFIEYLLAGGPSSGEPPPSEGX
# modifications: Aib, αMeL, acylated K, C-terminal AEEA amide; synthetic construct; SITE 2: note = 2-Aminoisobutyric Acid; SITE 13: note = alpha-methyl-leucine; SITE 17: note = Lysine is chemically modified through conjugation of the epsilon-amino group of the Lysine side chain with (2-[2-(2-Amino-ethoxy)-ethoxy]-acetyl)-(gamma-Glu)-CO-(CH2) 18-CO2H; SITE 20: n
# B5: Example 33 (peptide)
# chain: B4 chain with E40G, G41E
# modifications: not fully specified; Aib, αMeL; acylated Lys; C-terminal AEEA amide; synthetic construct; SITE 2: note = 2-Aminoisobutyric Acid; SITE 13: note = alpha-methyl-leucine; SITE 17: note = Lysine is chemically modified through conjugation of the epsilon-amino group of the Lysine side chain with (2-[2-(2-Amino-ethoxy)-ethoxy]-acetyl)-(gamma-Glu)-CO-(CH2) 18-CO2H; SITE 20: n
# B6: Example 41 (peptide)
# chain: YXQGTFTSDFSRXLDKKAQXAFIEYLLEGGPSSGAPPPGGS
# modifications: Aib, αMeL; acylated Lys; C-terminal amide; synthetic construct; SITE 2: note = 2-Aminoisobutyric Acid; SITE 13: note = alpha-methyl-leucine; SITE 17: note = Lysine is chemically modified through conjugation of the epsilon-amino group of the Lysine side chain with (2-[2-(2-Amino-ethoxy)-ethoxy]-acetyl)-(gamma-Glu)-CO-(CH2) 18-CO2H; SITE 20: n
# B7: Example 43 (peptide)
# chain: B6 chain with R12K, G29X
# modifications: acylated Lys; Aib, αMeL non-natural; C-terminal amide; synthetic construct; SITE 2: note = 2-Aminoisobutyric Acid; SITE 13: note = alpha-methyl-leucine; SITE 17: note = Lysine is chemically modified through conjugation of the epsilon-amino group of the Lysine side chain with (2-[2-(2-Amino-ethoxy)-ethoxy]-acetyl)-(gamma-Glu)-CO-(CH2) 18-CO2H; SITE 20: n
# B8: Example 42 (peptide)
# chain: B6 chain with G29X
# modifications: Aib, αMeL; acylated Lys; C-terminal amide; synthetic construct; SITE 2: note = 2-Aminoisobutyric Acid; SITE 13: note = alpha-methyl-leucine; SITE 17: note = Lysine is chemically modified through conjugation of the epsilon-amino group of the Lysine side chain with (2-[2-(2-Amino-ethoxy)-ethoxy]-acetyl)-(gamma-Glu)-CO-(CH2) 18-CO2H; SITE 20: n
# Target: T1, human GIP receptor (human) (UniProt P48546)
# T1 sequence (looked up): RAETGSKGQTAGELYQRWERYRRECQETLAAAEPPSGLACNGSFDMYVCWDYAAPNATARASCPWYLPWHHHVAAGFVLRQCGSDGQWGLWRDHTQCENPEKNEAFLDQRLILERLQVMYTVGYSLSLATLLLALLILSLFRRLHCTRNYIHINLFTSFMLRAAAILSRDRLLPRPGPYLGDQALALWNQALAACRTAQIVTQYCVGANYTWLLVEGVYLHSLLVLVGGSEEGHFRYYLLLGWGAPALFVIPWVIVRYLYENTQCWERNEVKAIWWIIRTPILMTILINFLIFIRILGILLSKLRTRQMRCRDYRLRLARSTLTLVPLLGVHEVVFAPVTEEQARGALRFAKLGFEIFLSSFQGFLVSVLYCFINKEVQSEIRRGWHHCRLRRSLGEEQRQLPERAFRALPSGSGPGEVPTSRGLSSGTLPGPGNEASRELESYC
# Assay: cell-based or functional assay
Binder,Relative cAMP EC50 [nM],cAMP Rel EC50 (in the presence of 1% HSA) [nM]
B1,0.35,70.1
B2,0.249,63.6
B3,0.207,56.4
B4,0.28,66.1
B5,0.285,70.7
Y[Aib]QGTFTSDFSK[αMeL]LDKKAQQAFIEYLLA[Aib]GPSSGAPPPSEG-NH2 (not fully specified (residue 17)) [Example 30],0.247,72.9
B6,0.258,97.9
B7,0.101,29.6
B8,0.115,32.3

# Target: human glucagon receptor (human) (UniProt P47871)
# Assay: cell-based or functional assay
# Chain of human glucagon receptor (human) (P47871 26-477): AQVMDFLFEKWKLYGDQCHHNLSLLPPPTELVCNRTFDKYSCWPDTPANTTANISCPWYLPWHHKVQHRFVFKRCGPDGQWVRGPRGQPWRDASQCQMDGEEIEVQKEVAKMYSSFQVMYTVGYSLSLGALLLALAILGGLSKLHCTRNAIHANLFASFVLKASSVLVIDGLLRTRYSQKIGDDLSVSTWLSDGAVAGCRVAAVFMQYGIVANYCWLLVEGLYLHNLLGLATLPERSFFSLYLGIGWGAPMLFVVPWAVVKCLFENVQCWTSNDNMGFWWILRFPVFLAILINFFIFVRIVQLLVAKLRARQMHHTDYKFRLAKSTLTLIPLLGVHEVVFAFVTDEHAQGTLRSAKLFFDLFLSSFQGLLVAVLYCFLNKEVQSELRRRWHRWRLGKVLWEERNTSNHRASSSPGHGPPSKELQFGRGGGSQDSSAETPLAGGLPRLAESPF
Binder,Relative cAMP EC50 [nM],cAMP Rel EC50 (in the presence of 1% HSA) [nM]
B1,11.1,1350
B2,8.42,1750
B3,6.83,1870
B4,11.6,1440
B5,7.04,1310
Y[Aib]QGTFTSDFSK[αMeL]LDKKAQQAFIEYLLA[Aib]GPSSGAPPPSEG-NH2 (not fully specified (residue 17)) [Example 30],5.22,969
B6,8.59,2310
B7,2.71,850
B8,5.83,1520

# Target: hGLP-1R (Homo sapiens, UniProt P43220)
# Assay: cell-based or functional assay
# Chain of hGLP-1R (P43220 24-463): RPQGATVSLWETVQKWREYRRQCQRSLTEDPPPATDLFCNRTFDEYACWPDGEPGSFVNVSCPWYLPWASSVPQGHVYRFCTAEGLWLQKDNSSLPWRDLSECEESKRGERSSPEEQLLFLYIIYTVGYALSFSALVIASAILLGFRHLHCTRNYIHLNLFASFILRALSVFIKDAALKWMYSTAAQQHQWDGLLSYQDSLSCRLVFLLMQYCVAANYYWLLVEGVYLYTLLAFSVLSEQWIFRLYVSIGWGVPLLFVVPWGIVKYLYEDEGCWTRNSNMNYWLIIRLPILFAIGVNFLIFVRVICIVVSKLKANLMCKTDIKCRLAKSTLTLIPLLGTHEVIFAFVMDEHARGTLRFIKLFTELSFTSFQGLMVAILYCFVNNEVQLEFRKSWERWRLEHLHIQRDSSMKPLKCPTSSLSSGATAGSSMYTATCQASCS
Binder,Relative cAMP EC50 [nM],cAMP Rel EC50 (in the presence of 1% HSA) [nM]
B1,3.56,493
B2,2.16,737
B3,1.66,514
B4,2.55,422
B5,1.71,436
Y[Aib]QGTFTSDFSK[αMeL]LDKKAQQAFIEYLLA[Aib]GPSSGAPPPSEG-NH2 (not fully specified (residue 17)) [Example 30],3.18,806
B6,2.2,711
B7,1.55,539
B8,2.17,700

# Target: human GLP1-R (SNAP-GLP-1R expressed in HEK293 cells) (human) (UniProt P43220)
# Assay: cell-based or functional assay
# Chain of human GLP1-R (SNAP-GLP-1R expressed in HEK293 cells) (human) (P43220 24-463): as above
Binder,GLP1R Internalization EC50 [nM],Internalization % TOP [%]
B1,129,57
B2,91.9,67.4
B3,51.6,68.3
B4,86.1,64.4
B5,106,64.6
Y[Aib]QGTFTSDFSK[αMeL]LDKKAQQAFIEYLLA[Aib]GPSSGAPPPSEG-NH2 (not fully specified (residue 17)) [Example 30],70.4,72.8
B6,83.7,62.3
B7,58.2,68.3
B8,61.4,58.3
